Assay results as given in patent US10800847.
One block for each substance: values may come before it.

Tests used:
[1] = molecular target: HLA-B*1301 (B13) (human); test: iBead MFI against regular-bead MFI, IVIg diluted 1:4
[2] = molecular target: HLA-B*0801 (B8) (human); test: as above
[3] = molecular target: HLA-B*1503 (B72) (human); test: as above
[4] = molecular target: HLA-B*1510 (B71) (human); test: as above
[5] = molecular target: HLA-A*3402 (A34) single antigen on beads (human); test: Luminex single-antigen regular beads (#7), IVIg 1:4
[6] = molecular target: HLA-A*6601 (A66) single antigen on beads (human); test: as above
[7] = molecular target: HLA-A*6801 (A68) single antigen on beads (human); test: as above
[8] = molecular target: HLA-A*3201 (A32) single antigen on beads (human); test: as above
[9] = molecular target: HLA-A*3301 (A33) single antigen on beads (human); test: as above
[10] = molecular target: HLA-A*3002 (A30) single antigen on beads (human); test: as above
[11] = molecular target: HLA-A*3303 (A33) single antigen on beads (human); test: as above
[12] = molecular target: HLA-A*2902 (A29) single antigen on beads (human); test: as above
[13] = molecular target: HLA-A*3101 (A31) single antigen on beads (human); test: as above
[14] = molecular target: Albumin on negative control beads (serum albumin, HSA/BSA) (human or bovine); test: Luminex single antigen beads, iBeads (#6), 1:8
[15] = molecular target: HLA-A*0301 (A3) on single antigen beads (human) (UniProt P04439); test: Luminex single antigen beads, iBeads (#6), 1:8
[16] = molecular target: HLA-B*4101 (B41) single antigen on Luminex beads (human); test: Luminex single antigen, regular beads (#7), IVIg 1:8
[17] = molecular target: HLA-B*3901 (B39) single antigen on Luminex beads (human); test: as above
[18] = molecular target: HLA-B*4701 (B47) single antigen on Luminex beads (human); test: as above
[19] = molecular target: HLA-B*4501 (B45) single antigen on Luminex beads (human); test: as above
[20] = molecular target: HLA-B*4201 (B42) single antigen on Luminex beads (human); test: as above
[21] = molecular target: HLA-B*4002 (B61) single antigen on Luminex beads (human); test: as above
[22] = molecular target: HLA-B*3501 (B35) single antigen on Luminex beads (human); test: as above
[23] = molecular target: HLA-B*4601 (B46) single antigen on Luminex beads (human); test: as above
[24] = molecular target: HLA-B*3701 (B37) single antigen on Luminex beads (human); test: as above
[25] = molecular target: HLA-B*2705 (B27) single antigen on Luminex beads (human); test: as above
[26] = molecular target: HLA-B*4402 (B44) single antigen on Luminex beads (human); test: as above
[27] = molecular target: HLA-B*4006 (B61) single antigen on Luminex beads (human); test: as above
[28] = molecular target: HLA-B*3801 (B38) single antigen on Luminex beads (human); test: as above
[29] = molecular target: HLA-B*4001 (B60) single antigen on Luminex beads (human); test: as above
[30] = molecular target: HLA-B*2708 (B27) single antigen on Luminex beads (human); test: as above
[31] = molecular target: HLA-B*4501 (B45) single antigen on Luminex beads (human); test: Luminex single antigen, iBeads (#6), IVIg 1:8
[32] = molecular target: HLA-B*4201 (B42) single antigen on Luminex beads (human); test: Luminex single antigen, iBeads (#6), IVIg 1:8
[33] = molecular target: HLA-B*4002 (B61) single antigen on Luminex beads (human); test: Luminex single antigen, iBeads (#6), IVIg 1:8
[34] = molecular target: HLA-B*3501 (B35) single antigen on Luminex beads (human); test: Luminex single antigen, iBeads (#6), IVIg 1:8
[35] = molecular target: HLA-B*3701 (B37) single antigen on Luminex beads (human); test: Luminex single antigen, iBeads (#6), IVIg 1:8
[36] = molecular target: HLA-B*2705 (B27) single antigen on Luminex beads (human); test: Luminex single antigen, iBeads (#6), IVIg 1:8
[37] = molecular target: HLA-B*4403 (B44) single antigen on Luminex beads (human); test: Luminex single antigen, iBeads (#6), IVIg 1:8
[38] = molecular target: HLA-B*4402 (B44) single antigen on Luminex beads (human); test: Luminex single antigen, iBeads (#6), IVIg 1:8
[39] = molecular target: HLA-B*3801 (B38) single antigen on Luminex beads (human); test: Luminex single antigen, iBeads (#6), IVIg 1:8
[40] = molecular target: HLA-B*4001 (B60) single antigen on Luminex beads (human); test: Luminex single antigen, iBeads (#6), IVIg 1:8
[41] = molecular target: HLA-B*2708 (B27) single antigen on Luminex beads (human); test: Luminex single antigen, iBeads (#6), IVIg 1:8

- Difference % (iBead vs regular bead) [1]: -4%
- Difference % (iBead vs regular bead) [2]: 18%
- Difference % (iBead vs regular bead) [3]: 0%
- Difference % (iBead vs regular bead) [4]: 13%
- MFI [5]: 0 MFI
- MFI [6]: 93 MFI
- MFI [7]: 0 MFI
- MFI [8]: 255 MFI
- MFI [9]: 185 MFI
- MFI [10]: 174 MFI
- MFI [11]: 0 MFI
- MFI [12]: 200 MFI
- MFI [13]: 0 MFI
Substance: IVIg Sandoglobulin (Novartis, Basel, Switzerland) (antibody)

- MFI [14]: 1670 MFI
- MFI [15]: 0 MFI
- MFI [16]: 393 MFI
- MFI [17]: 0 MFI
- MFI [18]: 2200 MFI
- MFI [19]: 956 MFI
- MFI [20]: 364 MFI
- MFI [21]: 271 MFI
- MFI [22]: 964 MFI
- MFI [23]: 2440 MFI
- MFI [24]: 9970 MFI
- MFI [25]: 154 MFI
- MFI [26]: 4000 MFI
- MFI [27]: 4970 MFI
- MFI [28]: 1000 MFI
- MFI [29]: 987 MFI
- MFI [30]: 54 MFI
- MFI [31]: 308 MFI
- MFI [32]: 0 MFI
- MFI [33]: 0 MFI
- MFI [34]: 0 MFI
- MFI [35]: 0 MFI
- MFI [36]: 0 MFI
- MFI [37]: 698 MFI
- MFI [38]: 702 MFI
- MFI [39]: 0 MFI
- MFI [40]: 4 MFI
- MFI [41]: 0 MFI
Substance: Octagam (IVIg, Octapharma, Lachen, Switzerland) (antibody)
